Earlier results, collected in paper PMC5757840.

Molecular target: SNARE complex (Rattus norvegicus) (UniProt P32851)
UniProt P32851, sequence (P32851 whole entry, chain 1 of 3): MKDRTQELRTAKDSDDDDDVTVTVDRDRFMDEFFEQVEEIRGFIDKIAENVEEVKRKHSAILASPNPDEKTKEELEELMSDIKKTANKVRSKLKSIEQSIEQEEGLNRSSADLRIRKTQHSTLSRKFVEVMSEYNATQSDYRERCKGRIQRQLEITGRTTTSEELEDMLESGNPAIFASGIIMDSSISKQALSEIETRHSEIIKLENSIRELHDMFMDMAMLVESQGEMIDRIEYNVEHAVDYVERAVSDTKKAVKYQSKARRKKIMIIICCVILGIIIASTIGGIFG
UniProt P32851, sequence (B2RAU4 whole entry, chain 2 of 3, further chain): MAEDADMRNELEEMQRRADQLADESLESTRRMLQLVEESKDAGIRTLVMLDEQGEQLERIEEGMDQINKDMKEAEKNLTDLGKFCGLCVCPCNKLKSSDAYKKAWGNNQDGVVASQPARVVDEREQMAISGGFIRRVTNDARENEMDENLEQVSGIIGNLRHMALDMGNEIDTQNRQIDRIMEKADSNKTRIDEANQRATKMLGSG
UniProt P32851, sequence (P63044 2-116, chain 3 of 3, further chain): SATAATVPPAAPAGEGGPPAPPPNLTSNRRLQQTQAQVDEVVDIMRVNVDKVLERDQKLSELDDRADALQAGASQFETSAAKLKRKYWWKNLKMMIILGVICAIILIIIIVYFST

Kd: 900 nM
Substance: Syt1 (from UniProt P21707)
